The text below walks through data of patent EP1270739A1.

Assay [1] deals with purified human placental alkaline phosphatase (hPLAP, SIGMA) (human) (UniProt P05187). In words: ELISA, plate coated with purified hPLAP; mAb 64 ng/ml in PBS, diluted 1:2; anti-mouse-HRP, TMB. On the technique in general: In an ELISA, binding on a coated surface is turned into a signal by an enzyme label.
The target is the same in assay [2]. In words: ELISA, plate coated with purified hPLAP; mAb 64 ng/ml spiked in negative serum, undiluted; anti-mouse-HRP, TMB.
Assay [3] shares this target. The experiment in a line: ELISA, plate coated with purified hPLAP; mAb 64 ng/ml spiked in negative serum, diluted 1:8; anti-mouse-HRP, TMB.
The target is the same in assay [4]. The experiment in a line: ELISA, plate coated with purified hPLAP; mAb 64 ng/ml spiked in negative serum, diluted 1:2; anti-mouse-HRP, TMB.
Assay [5] has the same target. In words: ELISA, plate coated with purified hPLAP; row labelled '0' (not explained, presumably no sample, blank); anti-mouse-HRP, TMB.
The target is the same in assay [6]. In words: ELISA, plate coated with purified hPLAP; mAb 64 ng/ml in PBS, diluted 1:16; anti-mouse-HRP, TMB.
Assay [7] has the same target. The experiment in a line: ELISA, plate coated with purified hPLAP; mAb 64 ng/ml in PBS, diluted 1:4; anti-mouse-HRP, TMB.
Assay [8] has the same target. In words: ELISA, plate coated with purified hPLAP; mAb 64 ng/ml spiked in negative serum, diluted 1:4; anti-mouse-HRP, TMB.
Assay [9] shares this target. The experiment in a line: ELISA, plate coated with purified hPLAP; mAb 64 ng/ml spiked in negative serum, diluted 1:32; anti-mouse-HRP, TMB.
Assay [10] shares this target. In words: ELISA, plate coated with purified hPLAP; mAb 64 ng/ml in PBS, undiluted; anti-mouse-HRP, TMB.
Assay [11] shares this target. The experiment in a line: ELISA, plate coated with purified hPLAP; mAb 64 ng/ml in PBS, diluted 1:64; anti-mouse-HRP, TMB.
For assay [12] the target is unchanged. The experiment in a line: ELISA, plate coated with purified hPLAP; mAb 64 ng/ml in PBS, diluted 1:8; anti-mouse-HRP, TMB.
Assay [13] has the same target. The experiment in a line: ELISA, plate coated with purified hPLAP; mAb 64 ng/ml spiked in negative serum, diluted 1:16; anti-mouse-HRP, TMB.
The target is the same in assay [14]. The experiment in a line: ELISA, plate coated with purified hPLAP; mAb 64 ng/ml in PBS, diluted 1:32; anti-mouse-HRP, TMB.
For assay [15] the target is unchanged. In words: ELISA, plate coated with purified hPLAP; mAb 64 ng/ml spiked in negative serum, diluted 1:64; anti-mouse-HRP, TMB.

“And” between values parts separate entries of the source, which are not always exact repeats. Equal values may be shown once.

Chain of UniProt P05187 (P05187 23-506 limits assumed): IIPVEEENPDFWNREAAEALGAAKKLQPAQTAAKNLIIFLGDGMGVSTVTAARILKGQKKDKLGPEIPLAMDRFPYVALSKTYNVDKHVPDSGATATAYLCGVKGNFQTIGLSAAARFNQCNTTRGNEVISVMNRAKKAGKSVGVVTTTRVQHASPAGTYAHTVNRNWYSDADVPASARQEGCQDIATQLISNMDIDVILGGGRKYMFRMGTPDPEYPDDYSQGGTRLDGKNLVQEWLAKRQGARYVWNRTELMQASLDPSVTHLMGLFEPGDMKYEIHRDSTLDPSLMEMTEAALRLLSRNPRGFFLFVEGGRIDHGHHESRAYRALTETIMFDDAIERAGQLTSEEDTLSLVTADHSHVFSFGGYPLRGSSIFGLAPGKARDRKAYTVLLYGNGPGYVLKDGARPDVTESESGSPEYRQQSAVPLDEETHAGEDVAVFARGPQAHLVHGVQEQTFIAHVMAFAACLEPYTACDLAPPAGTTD

For “mouse monoclonal antibody to PLAP (clone 8B6, Sigma Immunochemicals)”, the absorbance at 450 nm in assay [1] was 0.487 absorbance; in [2] it was 0.546 absorbance; in assay [3], 0.209 absorbance; in [4], 0.439 absorbance; in assay [5] it was 0.007 absorbance and 0.009 absorbance; in assay [6], 0.169 absorbance. For the same substance, the absorbance at 450 nm came out at 0.424 absorbance in [7]; 0.341 absorbance in assay [8]; 0.071 absorbance in assay [9]; 0.486 absorbance in assay [10]; 0.047 absorbance in [11]; 0.282 absorbance in assay [12]. The absorbance at 450 nm in [13] was 0.123 absorbance; in assay [14], 0.091 absorbance; in assay [15] it was 0.042 absorbance.

Substance “serum of mice injected with saline (negative control serum)” returned an absorbance at 450 nm in assay [5] of 0.005 absorbance.
